This series deals with HMG-I (HMGA1a), partially purified (Homo sapiens, UniProt P17096 P17096:2-107). The series can be described thus: pulldown; affinity column, eluted with 1 M NaCl; identified by peptide sequencing. The note with it: tags: ammonium sulfate and DEAE fractions from hypoxic SK-N-SH. The procedure: The above fraction (III) was dialyzed twice against 5 L of 50 mM Tris-HCl buffer (pH 7.5) at 4° C. for 4 hours. Then, the resulting dialysate was applied to 5′-amino-2′-O-methyl oligo RNA (5′-[…]-3′, SEQ ID NO: 24)-coupled CNBr-activated Sepharose 4B (manufactured by Pharmacia Biotech) affinity column. The above affinity column was washed with 10 ml of the above incubation buffer and then eluted with 15 ml of the incubation buffer containing 1 M NaCl to give a fraction having a binding activity to the RNA probe of No. 5 [fraction (IV), FIG. 7 (IV)] (FIG. 9, lane 4). The result of silver staining of fraction (IV) is shown in lane 4 in FIG. 8, and the result of RNA binding assay thereof is shown in lane 4 in FIG. 9.
Sequence of HMG-I (HMGA1a), partially purified (P17096 2-107, one chain of several): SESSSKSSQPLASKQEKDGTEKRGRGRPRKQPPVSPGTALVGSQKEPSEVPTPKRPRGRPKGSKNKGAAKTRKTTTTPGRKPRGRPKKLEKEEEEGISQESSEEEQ

For AUCUUCUUGGUGGUGCUCUACAAGUACCGCUGCUACAAGGUGAGGCCCU (ssRNA, 2'-OMe all, 5'-amino) [5'-amino-2'-O-methyl oligo RNA affinity ligand], the binding result is “binds”.

(Values after patent publication US20050065102, “Medicinal compositions” (published 2005).)
